# According to patent US20210284724A1 (I MAB BIOPHARMA US, published 2021):
# Where a chain is given by its changes, count along the chain named.
# T1: human CXCL13 (human, UniProt O43927 23-109)
# T1 construct: also called huCXCL13; rhCXCL13
# T1 sequence (looked up): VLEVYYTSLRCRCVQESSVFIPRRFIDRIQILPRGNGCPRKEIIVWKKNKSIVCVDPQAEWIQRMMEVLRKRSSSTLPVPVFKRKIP
# B1: 411A11E9-VH2VL2 (Fab, V domains shown)
# VH: EVQLVESGGGLVQPGGSLRLSCAASGFTFSDYYMAWVRQAPGKGLEWVASINYDGGDTYYRDSVKGRFTISRDNAKNSLYLQMNSLRAEDTAVYYCATEEDYDGSYVMDAWGQGTLVTVSS
# VL: DIQMTQSPSSLSASVGDRVTITCKASQNINKELTWYQQKPGKAPKRLIYNTNILQTGVPSRFSGSGSGTEFTLTISSLQPEDFATYFCLQQSSLYTFGQGTKLEIK
# notes: Humanized Fab, human gamma 1 and kappa constant domains
# B2: 411A11E9-VH2VL3 (Fab, V domains shown)
# VH: B1 VH
# VL: B1 VL with V58I
# notes: as for B1
# B3: 411A11E9-VH4VL4 (Fab, V domains shown)
# VH: B1 VH with A24V, I70V, T115A
# VL: B1 VL with V58I, F71Y
# notes: as for B1
# B4: 411A11E9-VH4VL2 (Fab, V domains shown)
# VH: B1 VH with A24V, I70V, T115A
# VL: B1 VL
# notes: as for B1
# B5: 411A11E9-VH2VL1 (Fab, V domains shown)
# VH: B1 VH
# VL: B1 VL with F87Y
# notes: as for B1
# B6: 411A11E9-VH4VL1 (Fab, V domains shown)
# VH: B1 VH with A24V, I70V, T115A
# VL: B1 VL with F87Y
# notes: as for B1
# B7: 411A11E9-VH4VL3 (Fab, V domains shown)
# VH: B1 VH with A24V, I70V, T115A
# VL: B1 VL with V58I
# notes: as for B1
# B8: 411A11E9-VH1VL3 (Fab, V domains shown)
# VH: B1 VH with T98R
# VL: B1 VL with V58I
# notes: as for B1
# B9: 411A11E9-VH1VL1 (Fab, V domains shown)
# VH: B1 VH with T98R
# VL: B1 VL with F87Y
# notes: as for B1
# B10: 411A11E9-VH3VL3 (Fab, V domains shown)
# VH: B1 VH with A24V
# VL: B1 VL with V58I
# notes: as for B1
# B11: 411A11E9-VH3VL1 (Fab, V domains shown)
# VH: B1 VH with A24V
# VL: B1 VL with F87Y
# notes: as for B1
# B12: 71F4A3-VH2VL2 (Fab, V domains shown)
# VH: EVQLVQSGGGLVQPGGSLRLSCAASGIDFSRYWMSWVRQAPGKGLEWVAEINPDSSTINYAPSLKDRFTISRDNAKNSLYLQMNSLRAEDTAVYYCARQDDYEYYAMDYWGQGTTVTVSS
# VL: DIQMTQSPSSLSASVGDRVTITCKASQDVNTGVAWYQQKPGKAPKLLIYSASYRYTGVPSRFSGSGSGTDFTFTISSVQPEDIATYYCQQYYSTPLTFGGGTKLEIK
# notes: as for B1
# B13: 71F4A3-VH3VL2 (Fab, V domains shown)
# VH: B12 VH with A49G, L86V
# VL: B12 VL
# notes: as for B1
# B14: 71F4A3-VH4VL1 (Fab, V domains shown)
# VH: B12 VH with V48I, A49G, L86V
# VL: B12 VL with V78L
# notes: as for B1
# B15: 71F4A3-VH4VL2 (Fab, V domains shown)
# VH: B12 VH with V48I, A49G, L86V
# VL: B12 VL
# notes: as for B1
# B16: 21H12D9-VH1VL3 (Fab, V domains shown)
# VH: QVQLVQSGAEVKKPGASVKVSCKASGYTFTDYYMNWVRQAPGQGLEWMGVINPNNGGTTYKEKFKGRVTMTRDTSISTAYMELSRLRSDDTAVYYCARDDYDAGYWGQGTLVTVSS
# VL: DIQMTQSPSSVSTSVGDRVTITCKASQNVDTAVAWYQQKPGKAPKLLIYSASHRYTGVPSRFSGSGSGTDFTLTISSVQPEDFATYYCQQYTDFPLTFGQGTRLEIK
# notes: Humanized Fab, human gamma 1 and kappa constant domains; also called 21VH12D9-VH1VL3
# B17: 21H12D9-VH2VL3 (Fab, V domains shown)
# VH: B16 VH with K12V, R72V
# VL: B16 VL
# notes: Humanized Fab, human gamma 1 and kappa constant domains; also called 21VH12D9-VH2VL3
# B18: 21H12D9-VH2VL1 (Fab, V domains shown)
# VH: B16 VH with K12V, R72V
# VL: B16 VL with T13A, V78L
# notes: Humanized Fab, human gamma 1 and kappa constant domains; also called 21VH12D9-VH2VL1
# B19: 21H12D9-VH4VL2 (Fab, V domains shown)
# VH: B16 VH with K12V, V20M, M48I, V68A, M70L, R72V, S77G, V112L
# VL: B16 VL with V78L
# notes: Humanized Fab, human gamma 1 and kappa constant domains; also called 21VH12D9-VH4VL2
# B20: 21H12D9-VH3VL1 (Fab, V domains shown)
# VH: B16 VH with K12V, M48I, V68A, M70L, R72V
# VL: B16 VL with T13A, V78L
# notes: Humanized Fab, human gamma 1 and kappa constant domains; also called 21VH12D9-VH3VL1
# B21: 21H12D9-VH4VL1 (Fab, V domains shown)
# VH: B16 VH with K12V, V20M, M48I, V68A, M70L, R72V, S77G, V112L
# VL: B16 VL with T13A, V78L
# notes: Humanized Fab, human gamma 1 and kappa constant domains; also called 21VH12D9-VH4VL1
# B22: 21H12D9-VH4VL3 (Fab, V domains shown)
# VH: B16 VH with K12V, V20M, M48I, V68A, M70L, R72V, S77G, V112L
# VL: B16 VL
# notes: Humanized Fab, human gamma 1 and kappa constant domains; also called 21VH12D9-VH4VL3
# B23: 21H12D9-VH3VL2 (Fab, V domains shown)
# VH: B16 VH with K12V, M48I, V68A, M70L, R72V
# VL: B16 VL with V78L
# notes: Humanized Fab, human gamma 1 and kappa constant domains; also called 21VH12D9-VH3VL2
# Biological target: T1, human CXCL13
# Test: SPR Biacore, off-rate ranking of Fabs
Kd,koff,kon,Binder
1.05 nM,0.00271 s⁻¹,2.58e+06 M⁻¹ s⁻¹,B1
1.42 nM,0.00335 s⁻¹,2.36e+06 M⁻¹ s⁻¹,B2
0.611 nM,0.00107 s⁻¹,1.74e+06 M⁻¹ s⁻¹,B3
0.944 nM,0.00196 s⁻¹,2.08e+06 M⁻¹ s⁻¹,B4
1.19 nM,0.00283 s⁻¹,2.37e+06 M⁻¹ s⁻¹,B5
1.03 nM,0.00281 s⁻¹,2.73e+06 M⁻¹ s⁻¹,B6
1.24 nM,0.00266 s⁻¹,2.14e+06 M⁻¹ s⁻¹,B7
3.37 nM,0.00176 s⁻¹,523000 M⁻¹ s⁻¹,B8
1.04 nM,0.013 s⁻¹,1.25e+07 M⁻¹ s⁻¹,B9
1.01 nM,0.00207 s⁻¹,2.05e+06 M⁻¹ s⁻¹,B10
1.06 nM,0.00242 s⁻¹,2.29e+06 M⁻¹ s⁻¹,B11
0.607 nM,0.00137 s⁻¹,2.25e+06 M⁻¹ s⁻¹,B12
0.557 nM,0.00139 s⁻¹,2.5e+06 M⁻¹ s⁻¹,B13
0.59 nM,0.001 s⁻¹,1.7e+06 M⁻¹ s⁻¹,B14
0.53 nM,0.00136 s⁻¹,2.57e+06 M⁻¹ s⁻¹,B15
1.67 nM,0.000975 s⁻¹,584000 M⁻¹ s⁻¹,B16
1.98 nM,0.000992 s⁻¹,501000 M⁻¹ s⁻¹,B17
1.74 nM,0.000991 s⁻¹,570000 M⁻¹ s⁻¹,B18
1.54 nM,0.00114 s⁻¹,742000 M⁻¹ s⁻¹,B19
1.76 nM,0.00131 s⁻¹,744000 M⁻¹ s⁻¹,B20
1.73 nM,0.00107 s⁻¹,618000 M⁻¹ s⁻¹,B21
1.59 nM,0.00116 s⁻¹,729000 M⁻¹ s⁻¹,B22
1.47 nM,0.00138 s⁻¹,940000 M⁻¹ s⁻¹,B23
